{"source": "patent US12428456B2", "about": "“Peptide directed protein knockdown” (University of British Columbia, priority 2012, dated 2025)", "key": {"[1]": {"test_system": "cortical neurons", "format": "cell-based", "settings": "H2O2 300 μM 30 min", "procedure": "Primary culture of cortical neurons. Dissociated cultures of rat cortical neurons were prepared from Sprague Dawley rat embryos collected from euthanized mothers 18 days after fertilization as previously described^35. Briefly, hippocampi and cerebral cortices were extracted from embryos and incubated for 30 min in 0.25% trypsin-EDTA. Digested tissues were dissociated by trituration and plated on poly-D-lysine-coated (Sigma, P7280) plates. Plating medium consisted of Neurobasal Media (Invitrogen, 21103-049) supplemented with B27 (Invitrogen, 17504044), glutamic acid (Sigma, G8415) and GlutaMax (Invitrogen, 35050-061). After 2 days, 2/3 of the media was replaced with fresh Neurobasal feeding media consisting of Neurobasal Media, B27 and GlutaMax. Cultures were maintained at 37° C. in a humidified 5% CO2 atmosphere. […]\nAssessment of neuronal death. Cytotoxic damage of primary neuron cultures was assessed by measuring LDH released into culture media as previously described^38. […] Peptide toxicity was assessed by treating neurons with 25 μM synthetic peptide or 200 μM recombinant peptide for 24 hrs. […] The amount of LDH in the medium was determined using a LDH cytotoxicity detection kit (Sigma, TOX7) according to the manufacturer's instructions. The absorbance at 490 nm was determined using a microplate reader (μQuant, Bio-TEK instruments), which was adjusted by background reading deduction."}, "[2]": {"molecular_target": "T1, α-synuclein (Rattus norvegicus, UniProt P37377)", "T1 construct": "endogenous in cells; host or cells: primary rat neurons", "experiment": "Degradation of endogenous α-synuclein in cultured neurons (immunoblot)", "format": "cell-based", "settings": "25 μM bath applied, 4 hours", "procedure": "(§1) Primary culture of cortical neurons. Dissociated cultures of rat cortical neurons were prepared from Sprague Dawley rat embryos collected from euthanized mothers 18 days after fertilization as previously described^35. Briefly, hippocampi and cerebral cortices were extracted from embryos and incubated for 30 min in 0.25% trypsin-EDTA. Digested tissues were dissociated by trituration and plated on poly-D-lysine-coated (Sigma, P7280) plates. Plating medium consisted of Neurobasal Media (Invitrogen, 21103-049) supplemented with B27 (Invitrogen, 17504044), glutamic acid (Sigma, G8415) and GlutaMax (Invitrogen, 35050-061). After 2 days, 2/3 of the media was replaced with fresh Neurobasal feeding media consisting of Neurobasal Media, B27 and GlutaMax. Cultures were maintained at 37° C. in a humidified 5% CO2 atmosphere. Mature neurons (14-18 days in vitro (DIV)) were used for experiments.\n(§2) Immunoblotting. Immunoblotting assays were carried out as previously described^36. Briefly, proteins were extracted from neurons using a lysis buffer composed of 150 mM NaCl, 50 mM Tris, pH 7.4, 0.1% SDS, 1% NP-40, 0.5% sodium deoxycholate, 1 mM EDTA, 1 mM Na3VO4, and proteinase inhibitor mixture (Thermo Fisher, PI78442). Samples were separated on 10% SDS-PAGE gels, transferred to polyvinylidene difluoride (PVDF) membrane, and immunoblotted with respective antibodies. Blots were enhanced with chemiluminescence detection reagent kit (Fisher, 32106) and visualized with Bio-Rad imager and Quantity One software. Signal intensities from each band was quantified with Bio-Rad Image Lab software, and the bands were analyzed relative to their controls from the same membrane and experiment."}, "[3]": {"molecular_target": "T2, PSD95 (Rattus norvegicus, UniProt P31016)", "T2 construct": "endogenous in cells; host or cells: primary rat neurons", "T2 sequence (P31016 whole entry)": "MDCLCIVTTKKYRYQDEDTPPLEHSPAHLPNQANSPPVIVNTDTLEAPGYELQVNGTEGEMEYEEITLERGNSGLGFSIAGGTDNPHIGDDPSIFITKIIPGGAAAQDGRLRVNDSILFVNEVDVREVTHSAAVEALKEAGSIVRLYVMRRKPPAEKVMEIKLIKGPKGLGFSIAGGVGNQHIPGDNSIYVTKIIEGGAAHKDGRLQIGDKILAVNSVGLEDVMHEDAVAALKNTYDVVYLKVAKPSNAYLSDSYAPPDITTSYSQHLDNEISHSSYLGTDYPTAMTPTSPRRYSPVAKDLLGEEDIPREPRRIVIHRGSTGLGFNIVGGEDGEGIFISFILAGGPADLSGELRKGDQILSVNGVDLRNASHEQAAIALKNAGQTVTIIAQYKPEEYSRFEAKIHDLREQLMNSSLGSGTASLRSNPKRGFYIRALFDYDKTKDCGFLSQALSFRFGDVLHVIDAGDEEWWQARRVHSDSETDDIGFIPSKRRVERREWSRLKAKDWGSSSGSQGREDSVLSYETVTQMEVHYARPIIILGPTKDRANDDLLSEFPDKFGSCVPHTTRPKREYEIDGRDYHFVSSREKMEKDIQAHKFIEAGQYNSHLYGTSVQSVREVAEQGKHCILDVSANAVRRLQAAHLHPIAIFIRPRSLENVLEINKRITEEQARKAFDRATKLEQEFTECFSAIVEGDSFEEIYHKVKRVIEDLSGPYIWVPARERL", "experiment": "Degradation of endogenous PSD95 in cultured neurons (immunoblot)", "format": "cell-based", "procedure": "as §1, §2"}, "[4]": {"molecular_target": "T3, DAPK1 (Rattus norvegicus, UniProt F1LNN8)", "T3 construct": "decreased the level of endogenous DAPK1 in cultured cortical neurons following NMDA treatment; endogenous in cells; host or cells: primary rat cortical neurons (E18, 14-18 DIV)", "T3 sequence (F1LNN8 1-1430)": "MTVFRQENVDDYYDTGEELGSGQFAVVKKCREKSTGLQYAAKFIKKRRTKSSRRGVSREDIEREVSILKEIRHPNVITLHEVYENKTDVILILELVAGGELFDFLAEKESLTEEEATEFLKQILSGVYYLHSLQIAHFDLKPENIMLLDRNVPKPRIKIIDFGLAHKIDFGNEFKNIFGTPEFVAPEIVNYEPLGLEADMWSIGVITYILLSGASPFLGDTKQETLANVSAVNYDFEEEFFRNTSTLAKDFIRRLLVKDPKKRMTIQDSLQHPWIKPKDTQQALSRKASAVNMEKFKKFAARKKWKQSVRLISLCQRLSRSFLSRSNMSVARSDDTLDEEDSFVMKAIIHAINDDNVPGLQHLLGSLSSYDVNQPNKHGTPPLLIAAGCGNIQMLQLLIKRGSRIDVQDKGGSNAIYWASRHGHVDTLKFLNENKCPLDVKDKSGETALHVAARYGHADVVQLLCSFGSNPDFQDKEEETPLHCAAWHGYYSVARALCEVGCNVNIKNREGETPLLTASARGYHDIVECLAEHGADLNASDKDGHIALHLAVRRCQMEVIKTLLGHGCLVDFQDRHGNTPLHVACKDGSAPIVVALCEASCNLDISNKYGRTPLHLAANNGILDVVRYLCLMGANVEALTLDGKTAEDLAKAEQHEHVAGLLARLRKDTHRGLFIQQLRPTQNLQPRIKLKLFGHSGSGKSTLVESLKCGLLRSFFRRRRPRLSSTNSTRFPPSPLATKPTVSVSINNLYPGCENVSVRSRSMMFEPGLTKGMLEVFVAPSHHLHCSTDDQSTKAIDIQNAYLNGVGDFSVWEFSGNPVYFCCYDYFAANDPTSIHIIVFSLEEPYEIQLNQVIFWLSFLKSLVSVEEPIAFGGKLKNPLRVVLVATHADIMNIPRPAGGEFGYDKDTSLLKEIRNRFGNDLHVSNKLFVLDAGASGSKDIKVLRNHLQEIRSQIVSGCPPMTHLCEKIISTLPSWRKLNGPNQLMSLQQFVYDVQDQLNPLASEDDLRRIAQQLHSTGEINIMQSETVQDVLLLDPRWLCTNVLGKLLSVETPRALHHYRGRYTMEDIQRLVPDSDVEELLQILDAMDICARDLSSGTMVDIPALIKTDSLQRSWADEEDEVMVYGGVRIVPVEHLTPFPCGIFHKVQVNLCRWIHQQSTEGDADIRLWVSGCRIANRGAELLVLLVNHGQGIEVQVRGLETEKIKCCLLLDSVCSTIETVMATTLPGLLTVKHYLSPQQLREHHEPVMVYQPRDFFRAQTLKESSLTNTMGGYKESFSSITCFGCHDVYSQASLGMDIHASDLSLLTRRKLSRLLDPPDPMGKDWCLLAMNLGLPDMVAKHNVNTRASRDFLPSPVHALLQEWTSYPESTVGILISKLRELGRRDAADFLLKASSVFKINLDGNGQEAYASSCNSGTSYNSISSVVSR", "experiment": "DAPK1 knockdown in brain, rat MCAO focal ischemia model (immunoblot, immunohistochemistry)", "format": "in vivo", "settings": "10 mg/kg i.v., ischemic vs contralateral side; listed as TATNR2B", "procedure": "as §2\n(§3) Middle cerebral arterial occlusion (MCAO). All animal experiments were performed according to protocols approved by the University of British Columbia Committee on Animal Care. Adult naïve male Sprague-Dawley rats (300-350 g, Charles River) were group housed (3-4 animals/cage) in 12 hr:12 hr light-dark cycles and had free access to rat pellet chow and water prior to surgery. Reversible MCAO with suture-insertion method was performed as described previously^37. Briefly, a nylon suture with a blunted tip was entered through the right external carotid artery of anesthetized rats and advanced to the right internal carotid artery until the right MCA was occluded. After 60 min of occlusion, the rat was reanesthetized to facilitate the removal of the occlusion. Body temperature was maintained at between 36.5 and 37.5° C. throughout the surgical procedure with a heating pad. Peptides (10 mg/kg) or vehicle control (saline; 1 ml/kg) was injected via the jugular vein. Rats were then sewn up and allowed to recover until tissue collection.\nImmunohistochemistry. Rats were anesthetized and perfused with double-filtered saline and 4% paraformaldehyde (PFA) in PBS. Brains were collected, immersed in 4% PFA before subjected to cryoprotection by 30% sucrose/PBS. After the brains had sunk, they were flash frozen with dry ice before overnight freezing in −80° C. They were then sliced at […] with a cryostat, and stored in 0.1 μM PB (sodium phosphate dibasic and sodium phosphate monobasic). Prior to staining, slices were washed 3×10 min with 0.1 μM PB, permeablized and blocked in 0.1 μM PB with 1% BSA and 0.2% Triton X-100 for 30 min, and stained with anti-DAPK1 (1:100) at 4° C. for 3 days. They were then washed and stained with Alexa 488 (1:1000) at 4° C. overnight before washing and mounting."}, "[5]": {"molecular_target": "T3, DAPK1", "experiment": "Knockdown of native DAPK1 in cultured cortical neurons, NMDA stimulation (immunoblot)", "format": "cell-based", "settings": "synthetic peptide 25 μM, prior to and during NMDA", "procedure": "Cell culture, transfection and treatments. HEK293 cells and COS7 cells were cultured in DMEM (Sigma, D6429-24X500ML) supplemented with 10% Fetal Bovine Serum (Invitrogen, 12483020). Cells were grown to 80% confluence in 6-well plates before transiently transfected with Lipofectamine 2000 (Invitrogen, 11668019), as according to the manufacturer's protocols. Cells were transfected for either 24 or 48 hours at 37° C. before harvesting for biochemical analyses. For experiments involving TAT or His-TAT peptides, unless otherwise specified, peptides were added 1 hour prior to NMDA insult.\nas §1, §2\nCellular fractionation. Cytoplasm/nuclei fractionation was performed on cultured cortical neurons (6.0*10^6 cells/100 mm dish). Briefly, cells were washed with ice cold PBS and rocked in lysis buffer for 30 min. Cells were then collected and centrifuged to obtain a rough cytoplasmic and nuclear fraction. Supernatant was collected and further centrifuged to obtain purified cytosolic fraction. The original pellet was washed and vortexed to obtain a nuclear lysis. Mitochondrial fractionation was performed as described in the Pierce Mitochondria Isolation Kit for Cultured Cells (Thermo Scientific, 89874) user guide. Purity was assessed by immunoblotting for the presence of LB1 (nucleus only), HSP90 (cytosol only) and VDAC1 (mitochondria only)."}, "[6]": {"test_system": "rat middle cerebral artery occlusion focal ischemia model", "experiment": "Ischemic brain damage, rat MCAO focal ischemia model (H&E staining)", "format": "in vivo", "settings": "10 mg/kg i.v., 60 min MCAO", "procedure": "as §3\nHematoxylin & Eosin (H&E) staining. Slices were mounted and dried on glass slides prior staining. Slides were immersed in Hematoxylin solution (Sigma, MHS1-100ML) for 15 min away from light, followed by 5 min blueing under tap water. Slides were then counterstained with 0.5% Eosin Y (Sigma, E4009-5G) and dipped in ddH2O until the eosin stopped streaking. […]"}}, "note": "“Also recorded” adds a separate entry of the source. Read-outs that look alike come from different tables or passages of the source.", "data": [{"molecule": "catalase", "values": [{"measurement": "neuronal death (LDH) normalized to naïve non-treated control (set as 1)", "setting": "[1]; catalase added, 12 hours", "result": "1.17±1.76"}]}, {"molecule": "YGRKKRRQRRRKLSSIESDVKFERQKILDQRFFE (targeted knockdown peptide targeting PSD95, with TAT PTD) [TAT-NR2B9c-CTM, PSD-95 targeting peptide]", "values": [{"measurement": "effect on endogenous α-synuclein level", "setting": "[2]", "result": "without perturbing untargeted protein α-synuclein"}, {"measurement": "effect on endogenous PSD95 level", "setting": "[3]; 25 μM bath applied", "result": "significantly reduced PSD95; also recorded: effectively degraded endogenous PSD95"}, {"measurement": "effect of NH4Cl on PSD95 reduction", "setting": "[3]; 25 μM, +NH4Cl", "result": "rescued PSD95 degradation"}]}, {"molecule": "YGRKKRRQRRRKKNRNKLRRQHSY [TAT-NR2B, CTS-lacking control peptide, reference compound]", "values": [{"measurement": "effect on DAPK1 levels in brain tissues (immunoblot)", "setting": "[4]", "result": "no obvious change"}, {"measurement": "effect on DAPK1 level after NMDA treatment", "setting": "[5]", "result": "did not affect DAPK1 levels"}, {"measurement": "ischemic damage / infarct areas (H&E staining)", "setting": "[6]", "result": "partially decreased ischemic damage"}]}, {"molecule": "N[C@H](CCCP(=O)(O)O)C(=O)O", "note": "[APV, (2R)-amino-5-phosphonopentanoic acid]", "values": [{"measurement": "neuronal death (LDH) normalized to naïve non-treated control (set as 1)", "setting": "[1]; 50 μM, 12 hours after treatment", "result": "2.16±13.8"}]}]}
